This is an account of results in patent US20230192886A1 (published 2023).

Sequences and labels used below:
B1: R16P1E8 (TCR, V domains shown)
Valpha: QKEVEQDPGPLSVPEGAIVSLNCTYSNSAFQYFMWYRQYSRKGPELLMYTYSSGNKEDGRFTAQVDKSSKYISLFIRDSQPSDSATYLCAMSEAAGNKLTFGGGTRVLVKP
Vbeta: EAGVAQSPRYKIIEKRQSVAFWCNPISGHATLYWYQQILGQGPKLLIQFQNNGVVDDSQLPKDRFSAERLKGVDSTLKIQPAKLEDSAVYLCASSYTNQGEAFFGQGTRLTVV
B2: R17P1D7 (TCR, V domains shown)
Valpha: AQTVTQSQPEMSVQEAETVTLSCTYDTSESDYYLFWYKQPPSRQMILVIRQEAYKQQNATENRFSVNFQKAAKSFSLKISDSQLGDAAMYFCAYRWAQGGSEKLVFGKGTKLTVNP
Vbeta: EADIYQTPRYLVIGTGKKITLECSQTMGHDKMYWYQQDPGMELHLIHYSYGVNSTEKGDLSSESTVSRIRTEHFPLTLESARPSHTSQYLCATELWSSGGTGELFFGEGSRLTVL
B3: R17P1A9 (TCR, V domains shown)
Valpha: QKEVEQNSGPLSVPEGAIASLNCTYSDRGSQSFFWYRQYSGKSPELIMSIYSNGDKEDGRFTAQLNKASQYVSLLIRDSQPSDSATYLCAVLNQAGTALIFGKGTTLSVSS
Vbeta: DSGVTQTPKHLITATGQRVTLRCSPRSGDLSVYWYQQSLDQGLQFLIQYYNGEERAKGNILERFSAQQFPDLHSELNLSSLELGDSALYFCASSAETGPWLGNEQFFGPGTRLTVL

This assay has as its target T1, PRAME (PRAME-004) peptide on HLA-A*02:01 (human).
T1 peptide: SLLQHLIGL
Nature of the assay: cytokine release.
With B1, the binding result is recorded as “recognises”.
Turning to B2, the binding result is listed as “recognises”.
In the case of B3, the binding result is given as “recognises”.
